Data on one protein can be found in article PMC11106675, “Synthesis of 1,4-azaphosphinine nucleosides and evaluation as inhibitors of human cytidine deaminase and APOBEC3A” (Beilstein Journal of Organic Chemistry, 2024).

Substrate in the data set: Nc1ccn([C@H]2C[C@H](O)[C@@H](CO)O2)c(=O)n1
As to the kind of experiment: UV kinetic assay of hCDA-catalysed 2'-deoxycytidine deamination. It counts as biochemical, human. The note with it: other: pH 7.4, fitted in the experiment with inhibitor β-anomer of Vb, 25.0 °C. As for the experimental part: We monitored the hCDA-catalysed deamination of dC at 286 nm and analysed the kinetic profiles at various inhibitor concentrations using a global regression analysis of the kinetic data using Lambert’s W function. This method provides better estimates for the Michaelis–Menten constant (KM) and maximum velocity (Vmax) than nonlinear regression analysis of the initial rate (V0). […] Then, KM for the substrate and Ki for each inhibitor were calculated, assuming competitive nature of the inhibitors (Table 1).
We assumed that protonation of Va might result in some inhibition of hCDA. […] This means that the pH value of the assay should be close to pH 1.5 to see any meaningful effect of partially protonated compound Va, but hCDA would be denatured at this pH value. By lowering the pH value to 6.0, dZ (IIc) started to lose potency against hCDA (Table 1), which might be a result of protonation of the pyrimidine ring in dZ (IIc). […]
Figure S10. hCDA (27nM) catalysed deamination of 2'-deoxycitidine (⁓1.5 mM) in the absence (plus) and presence of 5 µM 2'-deoxyzebularine (IIc, asterisk) monitored by measuring absorbance at 286 nm over time in 100 mM NaCl, 1 mM TCEP, 50 mM phosphate buffer at 25 °C, at pH 7.4. […]
where mm(t) calculates the current substrate concentration with respect to the time, t. […] A summary of the measured inhibition […]
Uncertainty of Ki was calculated using error-propagation method. […]

B1: human cytidine deaminase (hCDA) (Homo sapiens) (protein)
chain: MAQKRPACTLKPECVQQLLVCSQEAKKSAYCPYSHFPVGAALLTQEGRIFKGCNIENACYPLGICAERTAIQKAVSEGYKDFRAIAIASDMQDDFISPCGACRQVMREFGTNWPVYMTKPDGTYIVMTVQELLPSSFGPEDLQKTQ
notes: purchased Sigma-Aldrich SRP6372; host or cells: E. coli
For the protein B1, the Km came to 240 ± 150 µM.
